{"source": "the RNAGym collection of RNA variant scans (doi:10.1093/molbev/msab373)", "parents": {"B1": {"name": "Azoarcus group I ribozyme (parent)", "chain": "GUGCCUUGCGCCGGGAAACCACGCAAGGGAUGGUGUCAAAUUCGGCGAAACCUAAGCGCCCGCCCGGGCGUAUGGCAACGCCGAGCCAAGCUUCGGCGCCUGCGCCGAUGAAGGUGUAGAGACUAGACGGCACCCACCUAAGGCAAACGCUAUGGUGAAGGCAUAGUCCAGGGAGUGGCGAAAGUCACACAAACCGG"}}, "data": [{"variants_of": "B1", "assay": "reverse-splicing fitness (ratio to wild type); higher = more active; in vitro selection; Mg2+ level not given", "how_it_was_run": "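An in vitro group I ribozyme library with randomized positions was T7-transcribed and gel-purified. In triplicate, 10 pmol RNA in EPPS pH 7.5 was reacted with 50 pmoles of a 30-nt RNA substrate for 1 h at 37 °C across several added MgCl2 levels (1–48 mM), then stopped with EDTA. Products were reverse transcribed from a substrate-complementary primer, PCR-amplified and sequenced (HiSeq 4000). Fitness is a variant's read proportion after selection over that before, normalised to wild type.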", "values": [{"variant": "A120U A145G C169G U176G", "reverse-splicing fitness": 0.00281}, {"variant": "A120U A145G C169G U176A", "reverse-splicing fitness": 0.0414}, {"variant": "A120U A145G C169G U176C", "reverse-splicing fitness": 0.0902}, {"variant": "A120U A145C C150G C169U U176A", "reverse-splicing fitness": 0.00626}, {"variant": "A120U A145C C150G C169U U176G", "reverse-splicing fitness": 0.00273}, {"variant": "A120U A145C C150G C169U U176C", "reverse-splicing fitness": 0.00753}, {"variant": "A120U A145U C150A", "reverse-splicing fitness": 0.215}, {"variant": "A120U A145U C150U", "reverse-splicing fitness": 0.785}, {"variant": "A120U A145U C150G", "reverse-splicing fitness": 0.267}, {"variant": "A120U A145U C150U C169G U176C", "reverse-splicing fitness": 0.0637}, {"variant": "A120U A145U C150U C169G U176G", "reverse-splicing fitness": 0.00311}, {"variant": "A120U A145U C150U C169G U176A", "reverse-splicing fitness": 0.0285}, {"variant": "A145C C150U C169G", "reverse-splicing fitness": 0.0825}, {"variant": "A145C C150U C169A", "reverse-splicing fitness": 0.0428}, {"variant": "A145C C150U C169U", "reverse-splicing fitness": 0.122}, {"variant": "A145C C150A U176G", "reverse-splicing fitness": 0.14}, {"variant": "A145C C150A U176A", "reverse-splicing fitness": 0.217}, {"variant": "A145C C150A U176C", "reverse-splicing fitness": 0.206}, {"variant": "A145G C150G C169G U176A", "reverse-splicing fitness": 0.014}, {"variant": "A145G C150G C169G U176C", "reverse-splicing fitness": 0.0156}, {"variant": "A145G C150G C169G U176G", "reverse-splicing fitness": 0.00608}, {"variant": "A120U A145G C150A C169A U176G", "reverse-splicing fitness": 0.00241}, {"variant": "A120U A145G C150A C169A U176A", "reverse-splicing fitness": 0.00533}, {"variant": "A120U A145G C150A C169A U176C", "reverse-splicing fitness": 0.00372}, {"variant": "A120U U176A", "reverse-splicing fitness": 0.66}, {"variant": "A120U U176C", "reverse-splicing fitness": 0.678}, {"variant": "A120U U176G", "reverse-splicing fitness": 0.421}, {"variant": "A120U A145G C150U C169A", "reverse-splicing fitness": 0.0163}, {"variant": "A120U A145G C150U C169U", "reverse-splicing fitness": 0.256}, {"variant": "A120U A145G C150U C169G", "reverse-splicing fitness": 0.199}, {"variant": "A145C C169G U176G", "reverse-splicing fitness": 0.00875}, {"variant": "A145C C169G U176A", "reverse-splicing fitness": 0.0744}, {"variant": "A145C C169G U176C", "reverse-splicing fitness": 0.116}, {"variant": "A120U A145U U176G", "reverse-splicing fitness": 0.328}, {"variant": "A120U A145U U176C", "reverse-splicing fitness": 0.642}, {"variant": "A120U A145U U176A", "reverse-splicing fitness": 0.681}, {"variant": "A120U A145C C150U", "reverse-splicing fitness": 0.459}, {"variant": "A120U A145G C150U U176G", "reverse-splicing fitness": 0.155}, {"variant": "A120U A145G C150U U176C", "reverse-splicing fitness": 0.532}, {"variant": "A120U A145G C150U U176A", "reverse-splicing fitness": 0.54}, {"variant": "A120U A145G C150A C169A", "reverse-splicing fitness": 0.00622}, {"variant": "A120U A145G C150A C169U", "reverse-splicing fitness": 0.0612}, {"variant": "A120U A145G C150A C169G", "reverse-splicing fitness": 0.0459}, {"variant": "A145G C150G U176G", "reverse-splicing fitness": 0.0658}, {"variant": "A145G C150G U176C", "reverse-splicing fitness": 0.371}, {"variant": "A145G C150G U176A", "reverse-splicing fitness": 0.256}, {"variant": "A120U C150U", "reverse-splicing fitness": 0.774}, {"variant": "A120U C150G", "reverse-splicing fitness": 0.206}, {"variant": "A120U C150A", "reverse-splicing fitness": 0.245}, {"variant": "A145G C150A C169G U176A", "reverse-splicing fitness": 0.0321}, {"variant": "A145G C150A C169G U176G", "reverse-splicing fitness": 0.00527}, {"variant": "A145G C150A C169G U176C", "reverse-splicing fitness": 0.0517}, {"variant": "A120U A145U", "reverse-splicing fitness": 0.89}, {"variant": "A120U A145G", "reverse-splicing fitness": 0.837}, {"variant": "A120U C150G C169U U176A", "reverse-splicing fitness": 0.00472}, {"variant": "A120U C150G C169U U176C", "reverse-splicing fitness": 0.0154}, {"variant": "A120U C150G C169U U176G", "reverse-splicing fitness": 0.00276}, {"variant": "A120U C150G C169A", "reverse-splicing fitness": 0.00834}, {"variant": "A120U C150G C169G", "reverse-splicing fitness": 0.0252}, {"variant": "A120U C150G C169U", "reverse-splicing fitness": 0.0339}, {"variant": "A145C C150G C169U", "reverse-splicing fitness": 0.0739}, {"variant": "A145C C150G C169G", "reverse-splicing fitness": 0.0445}, {"variant": "A145C C150G C169A", "reverse-splicing fitness": 0.0221}, {"variant": "A120U A145G C150A C169G U176C", "reverse-splicing fitness": 0.0214}, {"variant": "A120U A145G C150A C169G U176A", "reverse-splicing fitness": 0.012}, {"variant": "A120U A145G C150A C169G U176G", "reverse-splicing fitness": 0.00259}, {"variant": "A120U A145U C169U U176G", "reverse-splicing fitness": 0.0134}, {"variant": "A120U A145U C169U U176C", "reverse-splicing fitness": 0.133}, {"variant": "A120U A145U C169U U176A", "reverse-splicing fitness": 0.0858}, {"variant": "A120U A145G C150G C169A U176G", "reverse-splicing fitness": 0.00464}, {"variant": "A120U A145G C150G C169A U176A", "reverse-splicing fitness": 0.0107}, {"variant": "A120U A145G C150G C169A U176C", "reverse-splicing fitness": 0.00713}, {"variant": "A120U A145U C150A C169U U176A", "reverse-splicing fitness": 0.0134}, {"variant": "A120U A145U C150A C169U U176C", "reverse-splicing fitness": 0.015}, {"variant": "A120U A145U C150A C169U U176G", "reverse-splicing fitness": 0.00399}, {"variant": "A120U A145U C150U U176G", "reverse-splicing fitness": 0.206}, {"variant": "A120U A145U C150U U176A", "reverse-splicing fitness": 0.608}, {"variant": "A120U A145U C150U U176C", "reverse-splicing fitness": 0.552}, {"variant": "A120U A145U C150G C169U U176C", "reverse-splicing fitness": 0.0175}, {"variant": "A120U A145U C150G C169U U176A", "reverse-splicing fitness": 0.00679}, {"variant": "A120U A145U C150G C169U U176G", "reverse-splicing fitness": 0.00288}, {"variant": "A120U A145C C150U U176G", "reverse-splicing fitness": 0.167}, {"variant": "A120U A145C C150U U176A", "reverse-splicing fitness": 0.328}, {"variant": "A120U A145C C150U U176C", "reverse-splicing fitness": 0.222}]}]}
